From patent publication US20240141039A1 (AGENUS, published 2024)
Like-named read-outs stand apart in the source and are kept apart here.

Key:
[1] = biological target: T1, wild type full-length cynomolgus monkey TIGIT expressed on CHO cells (cynomolgus monkey, UniProt A0A7N9I9V4 89-312); experiment: flow cytometry on CHO cells expressing cynomolgus TIGIT, PE anti-human IgG Fc detection
T1 construct: whole, on cells; also called cynomolgus TIGIT-CHO cells

[2] = biological target: T2, full-length isoform 2 ECD of cynomolgus monkey CD96 (His-tagged) (cynomolgus monkey); experiment: SPR Biacore T200, Protein A capture, 1:1 model, experiment #1
T2 construct: also called His-tagged isoform 2 of cynomolgus monkey CD96; cyno CD96 extracellular domain isoform 2
T2 chain: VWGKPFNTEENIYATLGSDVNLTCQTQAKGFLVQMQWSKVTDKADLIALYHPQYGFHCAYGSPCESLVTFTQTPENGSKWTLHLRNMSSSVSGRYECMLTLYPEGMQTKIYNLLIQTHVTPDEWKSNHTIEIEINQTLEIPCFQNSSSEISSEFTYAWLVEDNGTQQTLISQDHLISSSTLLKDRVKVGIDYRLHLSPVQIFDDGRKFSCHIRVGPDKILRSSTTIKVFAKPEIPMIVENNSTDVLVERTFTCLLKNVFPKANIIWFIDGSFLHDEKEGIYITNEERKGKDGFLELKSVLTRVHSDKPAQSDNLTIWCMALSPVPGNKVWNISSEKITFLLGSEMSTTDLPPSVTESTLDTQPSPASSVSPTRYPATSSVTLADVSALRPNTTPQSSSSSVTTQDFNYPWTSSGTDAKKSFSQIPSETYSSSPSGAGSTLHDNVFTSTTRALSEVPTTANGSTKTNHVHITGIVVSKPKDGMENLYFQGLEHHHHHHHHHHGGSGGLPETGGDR
Method: (§1) Briefly, surface plasmon resonance experiments were performed using a Biacore T200 instrument, and the association rate (kₐ), dissociation rate (kd), and dissociation constant (KD) were calculated from each experiment using a 1:1 binding model with Biacore T200 Evaluation Software.
(§2) Multispecific molecules were captured using a 30-sec injection at a flow rate of 10 μl/min to reach about 350 resonance units (RUs). […] The sensor chip was regenerated between cycles with two 30-sec injections of 10 mM glycine, pH 1.5. Sensorgrams were evaluated and fit to a simple Langmuir 1:1 interaction model using the global data analysis option of BIAevaluation 3.0 software. Data quality was verified by visually inspecting deviations and curve fitting, and by evaluating the parameters of Rₘₐₓ, Chi2, and Tc.

[3] = biological target: T1, wild type full-length cynomolgus monkey …; experiment: flow cytometry on CHO cells expressing cynomolgus TIGIT, PE anti-human IgG Fc detection; remark: listed apart in the source
[4] = biological target: T1, wild type full-length cynomolgus monkey …; experiment: flow cytometry, blocking of CD155-Fc-PE binding to cynomolgus TIGIT CHO cells, geomean of 3 experiments
Method: A 4× concentrated intermediate stock of each multispecific molecule was prepared in a microplate. Antibodies were serially diluted 1-to-4 in FACS buffer. […] Lastly, 25 μL of cynomolgus TIGIT-CHO cells, prepared as described above, were added to each well. After a 30-minute incubation on ice, the cells were washed twice with cold FACS Buffer, and the cells were analyzed by flow cytometry (BD LSR Fortessa Flow Cytometer). The data were analyzed using the FlowJo software by sequentially gating on the FSC-A vs. SSC-A and SSC-H vs. SSC-A. Mean fluorescence intensity (MFI) values for PE were calculated, and the data were plotted by GraphPad Prism software and analyzed as described above.

[5] = biological target: T3, full-length ECD of human TIGIT (His-tagged) (human); experiment: SPR Biacore T200, Protein A capture, 1:1 model, experiment #1
T3 construct: also called His-tagged human TIGIT; human TIGIT extracellular domain
T3 chain: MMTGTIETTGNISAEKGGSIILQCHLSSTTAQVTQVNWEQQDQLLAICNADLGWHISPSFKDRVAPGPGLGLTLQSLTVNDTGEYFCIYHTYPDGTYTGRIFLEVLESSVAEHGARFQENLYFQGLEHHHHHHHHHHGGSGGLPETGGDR
Method: as §1
as §2, with “Antibodies” for “Multispecific molecules”, “500” for “350”

[6] = biological target: T4, full-length ECD of cynomolgus monkey TIGIT (His-tagged) (cynomolgus monkey); experiment: as above
T4 construct: also called His-tagged cynomolgus monkey TIGIT; cyno TIGIT extracellular domain
Method: as §1
as §2, with “Antibodies” for “Multispecific molecules”, “500” for “350”

[7] = biological target: T1, wild type full-length cynomolgus monkey …; experiment: flow cytometry, cynomolgus TIGIT CHO cells, geomean of 2 experiments

T1 sequence (A0A7N9I9V4 entry or part of it): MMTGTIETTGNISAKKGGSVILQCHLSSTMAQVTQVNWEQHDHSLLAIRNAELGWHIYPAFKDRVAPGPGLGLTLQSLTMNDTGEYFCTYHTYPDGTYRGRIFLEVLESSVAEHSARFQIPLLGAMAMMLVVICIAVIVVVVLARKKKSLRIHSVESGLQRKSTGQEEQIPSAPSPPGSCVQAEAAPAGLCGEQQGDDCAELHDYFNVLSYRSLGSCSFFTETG

B1: anti-TIGIT×CD96 multispecific molecule BA123 (bispecific antibody, human IgG1, kappa, lambda)
heavy 1: QVQLVQSGAEVKKPGASVKVSCKASGYTFTSYGISWVRQAPGQGLEWMGWISAYNANTNYAQKLQGRVTMTTDTSTSTAYMELRSLRSDDTAVYYCARSAGVLGGMDVWGRGTLVTVSSASTKGPSVFPLAPSSKSTSGGTAALGCLVKDYFPEPVTVSWNSGALTSGVHTFPAVLQSSGLYSLSSVVTVPSSSLGTQTYICNVNHKPSNTKVDKRVEPKSCDKTHTCPPCPAPELLGGPDVFLFPPKPKDTLMISRTPEVTCVVVDVSHEDPEVKFNWYVDGVEVHNAKTKPREEQYNSTYRVVSVLTVLHQDWLNGKEYKCKVSNKALPAPIEKTISKAKGQPREPQVYTLPPSREEMTKNQVSLSCAVKGFYPSDIAVEWESNGQPENNYKTTPPVLDSDGSFFLVSKLTVDKSRWQQGNVFSCSVMHEALHNHYTQKSLSLSPG
light 1: not shown
heavy 2: EVQLVQSGAEVKKPGSSVKVSCKASGYTFASYGISWVRQAPGQGLEWMGGITPFFNRVDVAEKFQGRVTITADKSTSTAYIELSSLRSEDTAVYYCARDLRRGGVGDAFDIWGRGTLVTVSSASTKGPSVFPLAPSSKSTSGGTAALGCLVKDYFPEPVTVSWNSGALTSGVHTFPAVLQSSGLYSLSSVVTVPSSSLGTQTYICNVNHKPSNTKVDKRVEPKSCDKTHTCPPCPAPELLGGPDVFLFPPKPKDTLMISRTPEVTCVVVDVSHEDPEVKFNWYVDGVEVHNAKTKPREEQYNSTYRVVSVLTVLHQDWLNGKEYKCKVSNKALPLPEEKTISKAKGQPREPQVYTLPPSREEMTKNQVSLWCLVKGFYPSDIAVEWESNGQPENNYKTTPPVLDSDGSFFLYSKLTVDKSRWQQGNVFSCSVMHEALHNHYTQKSLSLSPG
light 2: QSALTQPRSVSGSPGQSVTISCTGTSPDVGSHAYRSWYQQHPGKAPKLMIYEVSYRPSGVSNRFSGSKSGNTASLTISGLQAEDEADYYCSSYPPSSATVFGAGTKLTVLGQPKAAPSVTLFPPSSEELQANKATLVCLISDFYPGAVTVAWKADSSPVKAGVETTTPSKQSNNKYAASSYLSLTPEQWKSHRSYSCQVTHEGSTVEKTVAPTEC
notes: copies: 1 + 1 + 1 + 1
In the case of B1, the “EC50 (read off the curve)” value [1] is reported as about 0.2 µg/mL, the Kd [2] is reported as 48 nM and the koff [2] is reported as 0.00379 s⁻¹. It also gave a kon [2] of 79000 M⁻¹ s⁻¹.

B2: anti-TIGIT×CD96 multispecific molecule BA127 (bispecific antibody, human IgG1, kappa, lambda)
heavy 1: QVQLVQSGAEVKKPGASVKVSCKASGYTFTTYALHWVRQAPGQRLEWMGWINTGSGDTKYSQKFQGRVTITRDTSASTAYMELSSLRSEDTAVYYCARSLGVYYGMDVWGQGTLVTVSSASTKGPSVFPLAPSSKSTSGGTAALGCLVKDYFPEPVTVSWNSGALTSGVHTFPAVLQSSGLYSLSSVVTVPSSSLGTQTYICNVNHKPSNTKVDKRVEPKSCDKTHTCPPCPAPELLGGPDVFLFPPKPKDTLMISRTPEVTCVVVDVSHEDPEVKFNWYVDGVEVHNAKTKPREEQYNSTYRVVSVLTVLHQDWLNGKEYKCKVSNKALPAPIEKTISKAKGQPREPQVYTLPPSREEMTKNQVSLSCAVKGFYPSDIAVEWESNGQPENNYKTTPPVLDSDGSFFLVSKLTVDKSRWQQGNVFSCSVMHEALHNHYTQKSLSLSPG
light 1: not shown
heavy 2: EVQLVQSGAEVKKPGSSVKVSCKASGYTFASYGISWVRQAPGQGLEWMGGITPFFNRVDVAEKFQGRVTITADKSTSTAYIELSSLRSEDTAVYYCARDLRRGGVGDAFDIWGRGTLVTVSSASTKGPSVFPLAPSSKSTSGGTAALGCLVKDYFPEPVTVSWNSGALTSGVHTFPAVLQSSGLYSLSSVVTVPSSSLGTQTYICNVNHKPSNTKVDKRVEPKSCDKTHTCPPCPAPELLGGPDVFLFPPKPKDTLMISRTPEVTCVVVDVSHEDPEVKFNWYVDGVEVHNAKTKPREEQYNSTYRVVSVLTVLHQDWLNGKEYKCKVSNKALPLPEEKTISKAKGQPREPQVYTLPPSREEMTKNQVSLWCLVKGFYPSDIAVEWESNGQPENNYKTTPPVLDSDGSFFLYSKLTVDKSRWQQGNVFSCSVMHEALHNHYTQKSLSLSPG
light 2: QSALTQPRSVSGSPGQSVTISCTGTSPDVGSHAYRSWYQQHPGKAPKLMIYEVSYRPSGVSNRFSGSKSGNTASLTISGLQAEDEADYYCSSYPPSSATVFGAGTKLTVLGQPKAAPSVTLFPPSSEELQANKATLVCLISDFYPGAVTVAWKADSSPVKAGVETTTPSKQSNNKYAASSYLSLTPEQWKSHRSYSCQVTHEGSTVEKTVAPTEC
notes: Anti-CD96 arm = BA139, anti-TIGIT arm = BA150; copies: 1 + 1 + 1 + 1
With B2 the “EC50 (read off the curve)” value [3] was about 0.2 µg/mL.

B3: anti-TIGIT monospecific antibody BA148 (antibody, human IgG1, lambda)
heavy: EVQLVQSGAEVKKPGSSVKVSCKASGYTFASYGISWVRQAPGQGLEWMGGITPFFNRVDVAEKFQGRVTITADKSTSTAYIELSSLRSEDTAVYYCARDLRRGGVGDAFDIWGRGTLVTVSSASTKGPSVFPLAPSSKSTSGGTAALGCLVKDYFPEPVTVSWNSGALTSGVHTFPAVLQSSGLYSLSSVVTVPSSSLGTQTYICNVNHKPSNTKVDKRVEPKSCDKTHTCPPCPAPELLGGPDVFLFPPKPKDTLMISRTPEVTCVVVDVSHEDPEVKFNWYVDGVEVHNAKTKPREEQYNSTYRVVSVLTVLHQDWLNGKEYKCKVSNKALPLPEEKTISKAKGQPREPQVYTLPPSREEMTKNQVSLTCLVKGFYPSDIAVEWESNGQPENNYKTTPPVLDSDGSFFLYSKLTVDKSRWQQGNVFSCSVMHEALHNHYTQKSLSLSPGK
light: QSALTQPRSVSGSPGQSVTISCTGTSPDVGSHAYRSWYQQHPGKAPKLMIYEVSYRPSGVSNRFSGSKSGNTASLTISGLQAEDEADYYCSSYPPSSATVFGAGTKLTVLGQPKAAPSVTLFPPSSEELQANKATLVCLISDFYPGAVTVAWKADSSPVKAGVETTTPSKQSNNKYAASSYLSLTPEQWKSHRSYSCQVTHEGSTVEKTVAPTEC
notes: IgG1; also called anti-TIGIT IgG1 antibody BA148
An IC50 [4] of 0.243 µg/mL, a Kd [5] of 0.535 nM and a koff [5] of 0.000413 s⁻¹ were found for B3 in this work. The kon [5] was 773000 M⁻¹ s⁻¹, the Kd [6] was 3.8 nM and the koff [6] was 0.00127 s⁻¹. For the same binder, the kon [6] was 334000 M⁻¹ s⁻¹ and the EC50 [7] was 0.0534 µg/mL.
